Values quoted from earlier work as cited in PMC3929396.

Biological target: CCR5 (Homo sapiens) (UniProt P51681)
Test: SPR

UniProt P51681, sequence (P51681 whole entry): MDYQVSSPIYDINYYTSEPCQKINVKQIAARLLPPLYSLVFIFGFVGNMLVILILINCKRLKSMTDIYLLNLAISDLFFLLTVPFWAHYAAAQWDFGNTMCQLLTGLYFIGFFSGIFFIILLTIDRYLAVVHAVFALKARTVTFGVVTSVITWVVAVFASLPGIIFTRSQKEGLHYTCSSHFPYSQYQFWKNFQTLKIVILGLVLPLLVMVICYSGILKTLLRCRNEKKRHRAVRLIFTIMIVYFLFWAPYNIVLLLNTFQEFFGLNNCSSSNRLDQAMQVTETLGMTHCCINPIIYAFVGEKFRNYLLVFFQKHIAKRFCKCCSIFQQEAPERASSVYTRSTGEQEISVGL

In the case of LukE (from UniProt O54081), the Kd is given as 39.6 nM.
